This passage reports residual protease activity of papain on 0.1% gelatin/SDS-PAGE results from patent US20070162998A1.

The assay concerns the target papain (cysteine protease) (UniProt P00784). Put plainly: cell-based or functional assay.
Chain of UniProt P00784 (P00784 134-345 limits assumed): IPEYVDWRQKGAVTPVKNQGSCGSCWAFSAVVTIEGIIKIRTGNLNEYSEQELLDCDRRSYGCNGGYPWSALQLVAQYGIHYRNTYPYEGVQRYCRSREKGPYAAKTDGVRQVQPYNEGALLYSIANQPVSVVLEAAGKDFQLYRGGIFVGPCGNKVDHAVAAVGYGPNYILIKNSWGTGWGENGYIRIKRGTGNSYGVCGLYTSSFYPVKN

As for “recombinant CeCPI protein (taro cysteine protease inhibitor, tarocystatin)”, the residual protease activity of papain on 0.1% gelatin/SDS-PAGE was 100.
